The text below walks through data of US20200306375A1 (ALETA BIOTHERAPEUTICS, published 2020).

The target of this assay is T1, FMC63 CAR-Flag (construct #140).
T1 construct: also called CAR19; CD19 CAR construct
Put plainly: flow cytometry on 293T cells transfected with construct #140; anti-mouse Fc gamma-PE detection. The protocol: Cells transfected with construct #140 (SEQ ID NO: 317) (2.5×10\hat{ }5 in 50 ul) were incubated with 50 u1 sup or purified (5 ug/ml as final conc.) protein of constructs#151/#152 (SEQ ID NO: 319/ SEQ ID NO: 320) for 30 min at 4° C., spun and washed twice with FACS buffer. This was followed by another incubation with anti-mouse Fc gamma-PE for 30 min at 4° C. Cells were spun and washed as above, and fixed with 1% PFA in PBS. Fixed cells were analyzed on Accuri 6 for CAR expression binding (PE positive).
For orientation: A flow cytometer gives signals particle by particle.

T1 sequence (chain, as listed by the source): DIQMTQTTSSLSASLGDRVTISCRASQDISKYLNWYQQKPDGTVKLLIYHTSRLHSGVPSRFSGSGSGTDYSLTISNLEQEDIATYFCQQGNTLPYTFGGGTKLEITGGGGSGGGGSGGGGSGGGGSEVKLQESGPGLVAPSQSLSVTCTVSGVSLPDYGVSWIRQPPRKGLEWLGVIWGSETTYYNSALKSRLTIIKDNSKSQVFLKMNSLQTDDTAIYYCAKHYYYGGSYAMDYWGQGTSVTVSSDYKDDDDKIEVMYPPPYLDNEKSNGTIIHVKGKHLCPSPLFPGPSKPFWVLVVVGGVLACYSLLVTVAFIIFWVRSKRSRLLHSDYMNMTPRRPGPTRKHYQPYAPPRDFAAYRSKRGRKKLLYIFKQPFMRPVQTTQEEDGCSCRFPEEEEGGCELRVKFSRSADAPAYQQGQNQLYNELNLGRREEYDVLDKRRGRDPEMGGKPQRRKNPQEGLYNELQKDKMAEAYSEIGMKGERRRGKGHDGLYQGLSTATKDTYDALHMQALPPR

B1: anti-FMC63 antibody, 136.20.1 (antibody, mouse IgG2a, kappa, V domains shown)
VH: EVKLVESGGGLVQPGGSLKLSCAASGFDFSRYWMSWVRQAPGKGLEWIGEINLDSSTINYTPSLKDKFIISRDNAKNTLYLQMSKVRSEDTALYYCARRYDAMDYWGQGTSVTVSS
VL: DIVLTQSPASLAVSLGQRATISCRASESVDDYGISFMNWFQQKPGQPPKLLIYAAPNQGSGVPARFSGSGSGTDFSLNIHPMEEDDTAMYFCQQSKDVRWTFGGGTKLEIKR
notes: also called anti-FMC63 (anti-Id) antibody; constructs #151/#152
Consider B1, for which the binding result is reported as “binds”.
